Assay [1] deals with T1, FpPG.S120N-N121K-S122D (Fusarium phyllophilum) (UniProt Q07181).
T1 sequence: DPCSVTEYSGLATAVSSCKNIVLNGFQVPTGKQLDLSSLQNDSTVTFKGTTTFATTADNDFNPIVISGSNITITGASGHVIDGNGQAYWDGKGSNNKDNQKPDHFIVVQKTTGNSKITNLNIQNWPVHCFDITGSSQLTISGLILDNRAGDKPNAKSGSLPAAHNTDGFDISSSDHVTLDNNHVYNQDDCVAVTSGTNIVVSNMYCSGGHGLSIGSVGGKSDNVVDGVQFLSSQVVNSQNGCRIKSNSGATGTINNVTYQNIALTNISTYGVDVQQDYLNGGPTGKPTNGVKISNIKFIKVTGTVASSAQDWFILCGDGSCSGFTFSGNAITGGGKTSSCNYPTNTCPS

In assay [2] the target is T2, FpPG.A274T (Fusarium phyllophilum) (UniProt Q07181).
T2 sequence: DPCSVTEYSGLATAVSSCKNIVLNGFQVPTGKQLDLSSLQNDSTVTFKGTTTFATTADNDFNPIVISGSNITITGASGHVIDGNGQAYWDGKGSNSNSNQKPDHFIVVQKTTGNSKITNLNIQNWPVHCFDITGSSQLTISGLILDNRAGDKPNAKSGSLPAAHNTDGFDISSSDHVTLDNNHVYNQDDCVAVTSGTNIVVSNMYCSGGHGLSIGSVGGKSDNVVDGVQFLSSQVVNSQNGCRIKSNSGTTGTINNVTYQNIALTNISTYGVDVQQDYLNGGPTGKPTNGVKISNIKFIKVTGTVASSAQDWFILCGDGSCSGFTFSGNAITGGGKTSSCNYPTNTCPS

The target of assay [3] is T3, FpPG.S363K (Fusarium phyllophilum) (UniProt Q07181).
T3 sequence: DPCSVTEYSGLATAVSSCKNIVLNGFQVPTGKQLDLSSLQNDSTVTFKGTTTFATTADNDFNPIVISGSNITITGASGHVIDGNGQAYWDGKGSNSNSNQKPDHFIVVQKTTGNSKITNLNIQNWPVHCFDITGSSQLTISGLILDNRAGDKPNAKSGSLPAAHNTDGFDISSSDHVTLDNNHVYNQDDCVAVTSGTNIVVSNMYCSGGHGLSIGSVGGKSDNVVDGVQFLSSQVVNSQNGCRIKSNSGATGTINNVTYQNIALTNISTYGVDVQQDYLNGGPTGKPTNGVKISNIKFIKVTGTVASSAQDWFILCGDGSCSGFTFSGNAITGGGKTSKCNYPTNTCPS

The target of assay [4] is T4, FpPG.L303E (Fusarium phyllophilum) (UniProt Q07181).
T4 sequence: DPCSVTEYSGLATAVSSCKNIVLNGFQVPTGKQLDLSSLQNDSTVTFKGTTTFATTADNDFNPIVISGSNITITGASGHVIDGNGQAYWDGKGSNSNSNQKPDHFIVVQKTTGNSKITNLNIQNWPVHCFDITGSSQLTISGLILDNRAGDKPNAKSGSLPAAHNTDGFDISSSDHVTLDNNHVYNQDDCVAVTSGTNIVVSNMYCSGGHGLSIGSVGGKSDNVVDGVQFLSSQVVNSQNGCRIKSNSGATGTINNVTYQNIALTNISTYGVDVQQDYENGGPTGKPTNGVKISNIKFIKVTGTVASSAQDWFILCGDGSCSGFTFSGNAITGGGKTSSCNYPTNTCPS

Assay [5] has as its target T5, polygalacturonase of Fusarium phyllophilum (FpPG) (Fusarium phyllophilum) (UniProt Q07181).
T5 sequence: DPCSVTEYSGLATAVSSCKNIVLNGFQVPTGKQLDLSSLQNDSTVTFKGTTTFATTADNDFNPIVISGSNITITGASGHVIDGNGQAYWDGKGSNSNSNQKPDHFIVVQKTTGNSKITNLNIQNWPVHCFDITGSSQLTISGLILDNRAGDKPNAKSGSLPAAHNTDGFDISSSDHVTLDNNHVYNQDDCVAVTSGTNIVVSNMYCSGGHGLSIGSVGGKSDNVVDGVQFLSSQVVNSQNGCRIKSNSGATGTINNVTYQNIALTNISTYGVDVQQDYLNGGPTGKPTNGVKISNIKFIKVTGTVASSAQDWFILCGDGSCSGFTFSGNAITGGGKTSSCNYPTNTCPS

In assay [6] the target is Polygalacturonase 1 of Colletotrichum lupini (CluPG1) strain SHK78813 (Colletotrichum lupini).
In assay [7] the target is T6, FpPG.K310T (Fusarium phyllophilum) (UniProt Q07181).
T6 sequence: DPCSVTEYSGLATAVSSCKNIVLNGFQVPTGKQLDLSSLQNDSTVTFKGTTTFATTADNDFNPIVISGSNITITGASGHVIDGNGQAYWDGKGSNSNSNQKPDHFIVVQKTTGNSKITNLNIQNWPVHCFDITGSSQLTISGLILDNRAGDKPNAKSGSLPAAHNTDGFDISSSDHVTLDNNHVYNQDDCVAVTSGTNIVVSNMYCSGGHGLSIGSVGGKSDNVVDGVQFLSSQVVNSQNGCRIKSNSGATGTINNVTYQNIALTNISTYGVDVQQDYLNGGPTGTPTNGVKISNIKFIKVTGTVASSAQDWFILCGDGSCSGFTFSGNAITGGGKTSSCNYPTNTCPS

A value given as a limit tells only on which side of the number the result lay.

B1: PG-inhibiting protein 2 of Phaseolus vulgaris pv Pinto (PvPGIP2) (natural protein)
chain: ELCNPQDKQALLQIKKDLGNPTTLSSWLPTTDCCNRTWLGVLCDTDTQTYRVNNLDLSGLNLPKPYPIPSSLANLPYLNFLYIGGINNLVGPIPPAIAKLTQLHYLYITHTNVSGAIPDFLSQIKTLVTLDFSYNALSGTLPPSISSLPNLVGITFDGNRISGAIPDSYGSFSKLFTSMTISRNRLTGKIPPTFANLNLAFVDLSRNMLEGDASVLFGSDKNTQKIHLAKNSLAFDLGKVGLSKNLNGLDLRNNRIYGTLPQGLTQLKFLHSLNVSFNNLCGEIPQGGNLQRFDVSAYANNKCLCGSPLPACT
As for B1, the fold reduction of the efficiency of inhibition by PvPGIP2 against wild type FpPG, agar diffusion assay (Figure 5A) in assay [1] came out at 25 fold. Also, the fold loss of inhibition by PvPGIP2 against wild type FpPG, agar diffusion assay (Figure 5A) in assay [2] stood at 150 fold. Besides, the amount of PGIP causing 50% inhibition of one agarose diffusion unit of the PG (agar diffusion assay) in assay [3] was determined as 2000 pg; in assay [4] it was 2000 pg; in assay [5], 2000 pg; in assay [6] it was 2500 pg; in assay [7], 2000 pg.

B2: PvPGIP2.Q224E (natural protein)
chain: ELCNPQDKQALLQIKKDLGNPTTLSSWLPTTDCCNRTWLGVLCDTDTQTYRVNNLDLSGLNLPKPYPIPSSLANLPYLNFLYIGGINNLVGPIPPAIAKLTQLHYLYITHTNVSGAIPDFLSQIKTLVTLDFSYNALSGTLPPSISSLPNLVGITFDGNRISGAIPDSYGSFSKLFTSMTISRNRLTGKIPPTFANLNLAFVDLSRNMLEGDASVLFGSDKNTEKIHLAKNSLAFDLGKVGLSKNLNGLDLRNNRIYGTLPQGLTQLKFLHSLNVSFNNLCGEIPQGGNLQRFDVSAYANNKCLCGSPLPACT
B2: the amount of PGIP causing 50% inhibition of one agarose diffusion unit of the PG (agar diffusion assay) in assay [3] was 2000 pg; in assay [4] it was 2000 pg; in assay [5], 2000 pg; in assay [6] it was 1100 pg; in assay [7], 2000 pg.

B3: PvPGIP2.Q224K (natural protein)
chain: ELCNPQDKQALLQIKKDLGNPTTLSSWLPTTDCCNRTWLGVLCDTDTQTYRVNNLDLSGLNLPKPYPIPSSLANLPYLNFLYIGGINNLVGPIPPAIAKLTQLHYLYITHTNVSGAIPDFLSQIKTLVTLDFSYNALSGTLPPSISSLPNLVGITFDGNRISGAIPDSYGSFSKLFTSMTISRNRLTGKIPPTFANLNLAFVDLSRNMLEGDASVLFGSDKNTKKIHLAKNSLAFDLGKVGLSKNLNGLDLRNNRIYGTLPQGLTQLKFLHSLNVSFNNLCGEIPQGGNLQRFDVSAYANNKCLCGSPLPACT
On to B3, for which the amount of PGIP causing 50% inhibition of one agarose diffusion unit of the PG (agar diffusion assay); ∞ indicates > 1500 ng in assay [3], in assay [5] and in assay [7] was above 1.5e+06 pg throughout. The amount of PGIP causing 50% inhibition of one agarose diffusion unit of the PG (agar diffusion assay) in assay [4] worked out at 20000 pg; in assay [6] it was 2500 pg.

Source of the values: publication PMC3834070.
